Several values for one entry are separate records, joined by “and”; a condition that tells them apart may be missing. Equal values may be shown once.
Legend:
transgenic maize plants [1] = assay: hybrid trait efficacy field trials (F1); type: in vivo; details: 2× quizalofop-P, six locations
Description: Inbred trait efficacy field trials were conducted to assess tolerance to the AOPP herbicides and sensitivity to the cyclohexanediones (CHD) herbicides in an inbred background. R2 inbred plants were generated by selfing a homozygous transgenic R1 plant and collecting seed. R2 inbred plants containing MON-HT55 with or without a CTP or MON-HT51 with a CTP and were evaluated at two field locations. Herbicide treatment was 2× quizalofop-P at 0.16 lb ai/acre applied PRE (after planting but before emergence) followed by quizalofop-P at 0.16 lb ai/acre applied at V4 growth stage followed by quizalofop-P at 0.16 lb ai/acre applied at V8 growth stage. Plots were rated for crop injury 7-10 days after herbicide application on a scale of 0-100 with zero being no injury and 100 being complete crop death. All data were subjected to analysis of variance and means separated at LSD (0.05). […] To test for sensitivity to CHD herbicides, which is desirable for use in volunteer control, plants were treated with a 1× rate of clethodim (0.25 lb ai/acre) at V8 growth stage. Volunteer control using a 1× rate of clethodim was 100% effective for all transgenic plants tested. Hybrid trait efficacy field trials were conducted to assess tolerance to the AOPP herbicides and sensitivity to the cyclohexanediones (CHD) herbicides in a hybrid background. F1 hybrid plants were produced by crossing an R1 inbred plant with a non-transgenic plant and collecting seed. The resulting F1 plants containing MON-HT55 (SEQ ID NO:13) with or without a CTP or MON-HT51 (SEQ ID NO: 3) without a CTP were evaluated at six field locations. The hybrid trait efficacy field trials were conducted at six locations under a range of environmental conditions, including high heat and drought conditions during the field season. This permitted the engineered protein to be evaluated in maize under high temperature and water stress conditions. Initial injury from 2× applications of quizalofop-P were higher than desired (>10% injury) at 7-10 days after application. Plants eventually grew out of most of the injury, with generally less injury from the V8 growth stage application as compared to the V4 growth stage application. Excessive injury was also noted when quizalofop-P was applied very early (for example, at VE-V2 growth stage).

transgenic maize plants [2] = assay: R1 green house quizalofop-P spray test; type: in vivo; details: R1 maize with CTP; quizalofop-P 1× at V2; eleven days after treatment
Source text: Plant transformation vectors were constructed each comprising a recombinant DNA molecule encoding one of three engineered proteins with the protein-coding sequence optimized for monocot expression, MON-HT51 (SEQ ID NO:3), MON-HT52 (SEQ ID NO:6), and MON-HT55 (SEQ ID NO:13). The vectors were created using different combinations of promoter, leader, intron, and 3′UTR and with and without a CTP operably linked to the protein-coding sequence. Also included in the vectors was a second DNA cassette comprising a cp4-EPSPS coding sequence to be used in transgenic plants for glyphosate tolerance. Immature maize (LH244) embryos were transformed with these vectors using Agrobacterium tumifaciens and standard methods known in the art. Regenerated R0 transgenic plantlets were grown in the green house and sprayed at approximately V2-V4 growth stage with 0.04 or 0.08 lb ai/acre quizalofop-P (AssureTM II, E.I. DuPont), representing 0.5× and 1× rates, respectively. Leaf samples were used to identify transgenic plants with a single copy of the transgenic DNA insert (that is, single event plants). […]
R1 plants expressing MON-HT55 with and without an operably linked CTP were grown in the green house and quizalofop-P herbicide was applied at the V2 growth stage at a rate of 0.08Ib ac/acre (1×). Plants were evaluated for injury eleven days after treatment.

F1 hybrid maize plants [3] = assay: plant-based growth chamber assay for temperature-sensitive quizalofop-P tolerance; type: in vivo
Source text: The finding that hybrid plants expressing the engineered proteins MON-HT55 or MON-HT51 were sensitive to quizalofop-P application when grown in field conditions of high temperature was confirmed using a plant-based assay. The plant-based assay was designed to test tolerance to quizalofop-P of F1 hybrids in the growth chamber prior to field testing. The assay was developed using F1 hybrids of plants containing maize events NK603 (U.S. Pat. No. 8,273,959)×MON89034 (U.S. Pat. No. 8,581,047) and F1 hybrids of plants containing MON-HT55×MON89034. F1 hybrid seed was germinated in a growth chamber for 1 week and then moved to one of three different growth chambers to acclimate for two days at day/night temperatures of 20° C./20° C., 28° C./20° C., and 38° C./30° C. prior to application of 2× (0.16 lb ai/acre) quizalofop-P. As expected, the plants not containing MON-HT55 at all temperature regimens were severely injured by 2× quizalofop-P application (FIG. 1B). […] (FIG. 1C). This confirmed that the plant-based assay could be used to screen proteins in plants in the growth chamber for temperature-sensitive activity.

F1 hybrid maize plants [4] = assay: maize green house tolerance to synthetic auxins; type: in vivo; details: 'A' CTP, Events 1-3 in columns
[5] = enzyme activity assay at 23° C. with purified enzyme; type: biochemical
Description: The enzyme activity of MON-HT protein variants with triclopyr, fluroxypyr, MCPA, MCPB, mecoprop, as substrates was determined using the enzyme activity assay conducted at 23° C. with purified enzyme. The activity was recorded as the maximum activity as a percentage of the wild-type RdpA enzyme's activity, which was set at 100%. […] The enzymatic activity with mecoprop as a substrate was reduced for each of the MON-HT1, MON-HT13, MON-HT15, and MON-HT17 variants compared to the wild-type RdpA enzyme. An unexpected result was that enzymatic activity with MCPA as a substrate was roughly 6-fold greater for MON-HT1, and approximately 10-fold greater for MON-HT13, MON-HT15, and MON-HT17 compared to the wild-type RdpA enzyme.

transgenic soy plants = assay: soy green house tolerance to synthetic auxins; type: in vivo, soybean; details: for Average soy % crop injury for 4 reps, 2,4-D Amine / Average soy % crop injury for 4 reps, MCPA: 2X rate 1680 g ae/ha
[6] = percentage of wild-type RdpA, set at 100%
[7] = 2X rate 840 g ae/ha, Events 1-3 in columns, seven days after treatment
[8] = Events 1-3 in columns, seven days after treatment
[9] = Events 1-3 in columns, seven days after treatment, listed as MON-HTI

B1: MON-HT51: engineered oxygenase protein, amino acid sequence SEQ ID NO:1 (protein)
chain: MHAALSPLSQRFERIAVQPLTGVLGAEITGVDLREPLSDSTWNEILDAFHTYQVIYFPGQAITNEQHIAFSRRFGPVDPVPLLKSIEGYPEVQMIRREANESGRVIGDDWHTDSSFLDAPPAAVVMRAIDVPEHGGDTGFLSMYTAYDALSDGLKKLISGLNVVHSATRVFGSLYQAQNRRFSNTSVKVMDVADGDRETVHPLVVTHPGSGRKGLYVNQVYCQRIEGMSEKESEPLLSFLFAHATKPEFTCRVRWKKDQVLVWDNLCTMHYAINDYHGQTRILHRTTVGGVRPAR
For B1, the “% injury after V4 spray” value (transgenic maize plants [1]; CTP Yes) was 51.8% and the “% injury after V8 spray” value (transgenic maize plants [1]; CTP Yes) was 33.3%.

B2: MON-HT55: engineered oxygenase protein, amino acid sequence SEQ ID NO:11 (protein)
chain: MHAALSPLSQRFERIAVQPLTGVLGAEITGVDLREPLDDSTWNEILDAFHTYQVIYFPGQAITNEQHIAFSRRFGPVDPVPLLKSIEGYPEVQMIRREANESGRVIGENWHTDSTFLDAPPAAVVMYAKEIPPYGGDTLFTSMYTAWETLSPTMQATIEGLNVVHSATRVFGSLYQAQNRRFSNTSVKVMDVDAGDRETVHPLVVTHPETGRKGLYVNQVYCQRIEGMSEKESEPLLSFLFAHATKPEFTCRVRWQEGDVLVWDNLCTQHYAVPDYAGKFRYLTRTTVGGVRPAR
With B2 the injury scores (transgenic maize plants [2]) was at most 5%, the “% injury after V4 spray” value (transgenic maize plants [1]; CTP No) was 46.8% and the “% injury after V8 spray” value (transgenic maize plants [1]; CTP No) was 78.8%. The “% injury after V4 spray” value (transgenic maize plants [1]; CTP Yes) was 42.6-48.3%, the “% injury after V8 spray” value (transgenic maize plants [1]; CTP Yes) was 14.2-38.8% and the “tolerance to 2× quizalofop-P application” value (F1 hybrid maize plants [3]; acclimated at day/night 20° C./20° C. or 28° C./20° C.) was “good tolerance”. For the same molecule, the “tolerance to 2× quizalofop-P application” value (F1 hybrid maize plants [3]; acclimated at day/night 38° C./30° C.) was “significant sensitivity”.

B3: MON-HT1: engineered oxygenase protein, amino acid sequence SEQ ID NO:14 (protein)
chain: MHAALTPLTNKYRFIDVQPLTGVLGAEITGVDLREPLDDSTWNEILDAFHTYQVIYFPGQAITNEQHIAFSRRFGPVDPVPILKSIEGYPEVQMIRREANESSRFIGDDWHTDSTFLDAPPAAVVMRAIEVPEYGGDTGFLSMYSAWETLSPTMQATIEGLNVVHSATKVFGSLYQATNWRFSNTSVKVMDVDAGDRETVHPLVVTHPVTGRRALYCNQVYCQKIQGMTDAESKSLLQFLYEHATKFDFTCRVRWKKDQVLVWDNLCTMHRAVPDYAGKFRYLTRTTVAGDKPSR
For B3, the “Average maize % crop injury for 4 reps, fluroxypyr” value (F1 hybrid maize plants [4]; 4X rate 1680 g ae/ha) was 20.0% and 21.3%, the “Average maize % crop injury for 4 reps, triclopyr” value (F1 hybrid maize plants [4]; 4X rate 1680 g ae/ha) was 26.3% and 37.5% and 35.0% and the “Average maize % crop injury for 4 reps, MCPA” value (F1 hybrid maize plants [4]; 4X rate 3360 g ae/ha, listed as MON-HTl) was 20%. For the same molecule, the “activity with MCPB as the substrate” value [5] was “no detectable activity”, the “enzymatic activity with MCPA greater compared to the wild-type RdpA enzyme” value [5] was “roughly 6 fold” and the “activity with fluroxypyr as the substrate” value ([5]; not robust enough to quantify) was “detectable activity”. For the same molecule, the “activity with triclopyr as the substrate” value ([5]; not robust enough to quantify) was “detectable activity”, the “MCPA Km” value [5, 6] was 21% and the “MCPA Vmax” value [5, 6] was 600%. For the same molecule, the “Mecoprop Km” value [5, 6] was 142%, the “Average soy % crop injury for 4 reps, fluroxypyr” value (transgenic soy plants; [7]) was 96.3% and 93.8% and 97.5% and the “Average soy % crop injury for 4 reps, triclopyr” value (transgenic soy plants; [7]) was 81.3% and 90.0%. For the same molecule, the “Average soy % crop injury for 4 reps, 2,4-D Amine” value (transgenic soy plants; [8]) was 4.5% and 6.5% and 5.3%, the “Average soy % crop injury for 4 reps, MCPA” value (transgenic soy plants; [8]) was 90.0% and 72.5% and the “Average soy % crop injury for 4 reps, 2,4-D Amine” value (transgenic soy plants; [9]) was “less than 7%”. For the same molecule, the “Average soy % crop injury for 4 reps, MCPA” value (transgenic soy plants; [9]) was 72% and 90% and the “soy crop injury, triclopyr or fluroxypyr, across all three events” value (transgenic soy plants; 2× rate 840 g ae/ha) was 81-97%.
